The target of experiment [1] is canine IL-31RA ECD-10His (canine). Description: ELISA: IL-31RA ECD coated at 10 ug/mL, biotinylated IL-31 titrated 3-fold from 10 ug/mL, HRP-streptavidin. For orientation: ELISA stands for enzyme-linked immunosorbent assay.
Experiment [2] has as its target T1, cIL-22-His (canine IL-22 with a His Tag) (canine).
T1 construct: also called cILHIS
T1 chain: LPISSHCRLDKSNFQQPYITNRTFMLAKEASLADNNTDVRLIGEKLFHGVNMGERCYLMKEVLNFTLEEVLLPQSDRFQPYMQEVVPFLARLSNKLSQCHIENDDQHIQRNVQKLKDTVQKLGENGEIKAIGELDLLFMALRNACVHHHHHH
Put plainly: ELISA: cIL-22-His coated, Fc fusion titrated from 10 ug/mL, anti-dog IgG (Fc)-HRP.

Chain of canine IL-31RA ECD-10His (canine) (chain, as listed by the source limits assumed): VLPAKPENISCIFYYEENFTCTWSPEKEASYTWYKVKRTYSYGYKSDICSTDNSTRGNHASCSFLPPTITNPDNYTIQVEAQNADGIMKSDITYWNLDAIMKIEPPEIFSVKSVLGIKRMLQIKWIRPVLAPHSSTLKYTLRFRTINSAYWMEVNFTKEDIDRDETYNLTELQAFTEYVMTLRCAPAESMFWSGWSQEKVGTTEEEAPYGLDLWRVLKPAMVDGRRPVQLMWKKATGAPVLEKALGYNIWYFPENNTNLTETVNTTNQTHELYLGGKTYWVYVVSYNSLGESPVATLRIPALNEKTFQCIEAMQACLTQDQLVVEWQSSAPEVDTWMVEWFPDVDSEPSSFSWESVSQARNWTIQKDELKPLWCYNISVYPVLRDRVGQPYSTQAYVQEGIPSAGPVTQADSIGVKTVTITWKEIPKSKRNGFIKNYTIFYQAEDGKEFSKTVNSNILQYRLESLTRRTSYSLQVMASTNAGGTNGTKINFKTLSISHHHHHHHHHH

The EC50 is the concentration giving half of the maximal effect. Higher therefore signals a need for much substance. In experiment [1], biotinylated canine IL-31 (ligand) displayed an EC50 of 0.368 mg/L.

B1: canine IL-22RA1-FcB fusion protein (extracellular domain of canine IL-22RA1 with canine IgG-B Fc) (Fc fusion)
chain: AEDTSDLLQYVKFQSSNFENILTWDSGLESAPDVVYSVEYKTYGKKEWLAKEGCQRITRKSCNLTTETGNHTEHYYARVTAVSAGGRSATKMTDRFSSMQQTTIKPPDVTCIPKVRSIQMIVHPTSTPIHAEDGHRLTLEDIFQDLFYRLELQVNHTYQMHLGGKQRDYEFIGLSPDTEFLGTITISVPNFFKESAPYVCRVKTLPDRTWTGGGGSGGGGSPKRENGRVPRPPDCPKCPAPEMLGGPSVFIFPPKPKDTLLIARTPEVTCVVVALDPEDPEVQISWFVDGKQMQTAKTQPREEQFAGTYRVVSVLPIGHQDWLKGKQFTCKVNNKALPSPIERTISKARGQAHQPSVYVLPPSREELSKNTVSLTCLIKDFFPPDIDVEWQSNGQQEPESKYRTTPPQLDEDGSYFLYSKLSVDKSRWQRGDTFICAVMHEALHNHYTQESLSHSPG
notes: also called cIL-22RA1-Fc fusion protein; canine IL-22RA1-Fc fusion protein
As to B1, the binding result in experiment [2] is recorded as “binds”.

B2: canine IL-22BP-FcB fusion protein (canine IL-22BP (IL-22RA2) with canine IgG-B Fc) (Fc fusion)
chain: TQSAYESLKPQRVHFQSRNFHNILHWQPGRACTSNGSVYFVQYKMYGQRQWKNKEDCWGILECFCDLTNETSDIQEPYYGRVRTTSAGIHSGWTMTQRFTPWWETKIDPPIINITQVNGSLLVILHAPSLPYRDQKGKNVSIENYYELLYRVFIINNSLEKEQKVYEGAHRIVEIGALAPHTGYCVVAEMYQPMLDRRSPRSEERCMELPGGGGSGGGGSPKRENGRVPRPPDCPKCPAPEMLGGPSVFIFPPKPKDTLLIARTPEVTCVVVALDPEDPEVQISWFVDGKQMQTAKTQPREEQFAGTYRVVSVLPIGHQDWLKGKQFTCKVNNKALPSPIERTISKARGQAHQPSVYVLPPSREELSKNTVSLTCLIKDFFPPDIDVEWQSNGQQEPESKYRTTPPQLDEDGSYFLYSKLSVDKSRWQRGDTFICAVMHEALHNHYTQESLSHSPG
notes: also called cIL-22BP-Fc fusion protein; canine IL-22BP-Fc fusion protein
B2: in experiment [2], the binding result was “binds”.
